For this test, the target named is synthetic peptide representing residues 620-635 of the BDBV GP2 stalk epitope (Bundibugyo virus). Description: crystal structure. The following applies: both partners purified.

B1: BDBV223 Fab (Fab, V domains shown)
VH: QVQLQQWGAGLLKPSETLSLTCAVYGGSFTTTYWNWIRQPPGKGLEWIGEVNYSGNANYNPSLKGRVAISVDTSKNQFSLRLNSVTAADTAIYYCTSRIRSHIAYSWKGDVWGKGTTVTVSS
VL: EIVMTQSPGTLSLSPGERATLSCRASQSVPRNYIGWFQQKPGQAPRLLIYGASSRAAGFPDRFSGSGSGTDFTLTITRLEPEDFAMYYCHQYDRLPYTFGQGTKLEIK
As to B1, the binding result is recorded as “binds”.

These data come from PMC6470140 (Nature Communications, 2019).
